In US20130005646A1 (Novo Nordisk, published 2013):
Starred links: 1 amine or outer side, 2 acyl side, 3 side chain; linkers in the order of their positions; H or OH if unused. Positions of bridges follow the written chain, without caps; N, C: chain ends. *: point of attachment. C20 diacid = O=C(O)CCCCCCCCCCCCCCCCCCC(=O)*; γGlu = O=C(O)[C@H](CCC(=O)[*:2])N[*:1]

Columns and labels:
[1] = biological target: T1, human amylin 3(a) receptor (human calcitonin receptor + RAMP-3) (human, UniProt P30988 25-474; O60896 24-148); assay: cell-based or functional assay
T1 sequence (looked up) 1: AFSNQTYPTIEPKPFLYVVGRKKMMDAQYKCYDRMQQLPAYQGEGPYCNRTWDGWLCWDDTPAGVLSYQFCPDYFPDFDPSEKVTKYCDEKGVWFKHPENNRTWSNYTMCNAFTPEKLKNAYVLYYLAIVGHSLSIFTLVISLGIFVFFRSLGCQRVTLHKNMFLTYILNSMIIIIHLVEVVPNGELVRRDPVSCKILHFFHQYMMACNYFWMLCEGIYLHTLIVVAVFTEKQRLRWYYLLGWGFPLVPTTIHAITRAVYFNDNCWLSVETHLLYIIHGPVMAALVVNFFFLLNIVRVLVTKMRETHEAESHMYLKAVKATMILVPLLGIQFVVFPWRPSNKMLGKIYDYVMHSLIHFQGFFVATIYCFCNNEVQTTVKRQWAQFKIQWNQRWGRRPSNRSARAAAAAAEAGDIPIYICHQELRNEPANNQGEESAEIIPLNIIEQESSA
T1 sequence (looked up) 2: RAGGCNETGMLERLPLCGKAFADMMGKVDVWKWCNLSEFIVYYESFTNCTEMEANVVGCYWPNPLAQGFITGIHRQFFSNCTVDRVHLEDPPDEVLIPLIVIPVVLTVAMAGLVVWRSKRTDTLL

[2] = biological target: T2, human calcitonin (a) receptor (human, UniProt P30988 25-474); assay: cell-based or functional assay
T2 sequence (looked up): T1 sequence (looked up) 1

B1: N-alpha-[(S)-4-Carboxy-4-(19-carboxynonadecanoylamino)butyryl]-His-His-[His1,Glu14,His17,His29]-pramlintide (peptide)
peptide: {C20 diacid-γGlu}-HHHCNTATCATQRLAEFLHHSSNNFGPILPHTNVGSNTY-NH2
modifications: disulfide 4-9
SMILES: CC[C@H](C)[C@H](NC(=O)[C@@H]1CCCN1C(=O)CNC(=O)[C@H](Cc1ccccc1)NC(=O)[C@H](CC(N)=O)NC(=O)[C@H](CC(N)=O)NC(=O)[C@H](CO)NC(=O)[C@H](CO)NC(=O)[C@H](Cc1c[nH]cn1)NC(=O)[C@H](Cc1c[nH]cn1)NC(=O)[C@H](CC(C)C)NC(=O)[C@H](Cc1ccccc1)NC(=O)[C@H](CCC(=O)O)NC(=O)[C@H](C)NC(=O)[C@H](CC(C)C)NC(=O)[C@H](CCCNC(=N)N)NC(=O)[C@H](CCC(N)=O)NC(=O)[C@@H](NC(=O)[C@H](C)NC(=O)[C@@H]1CSSC[C@H](NC(=O)[C@H](Cc2c[nH]cn2)NC(=O)[C@H](Cc2c[nH]cn2)NC(=O)[C@H](Cc2c[nH]cn2)NC(=O)CC[C@H](NC(=O)CCCCCCCCCCCCCCCCCCC(=O)O)C(=O)O)C(=O)N[C@@H](CC(N)=O)C(=O)N[C@@H]([C@@H](C)O)C(=O)N[C@@H](C)C(=O)N[C@@H]([C@@H](C)O)C(=O)N1)[C@@H](C)O)C(=O)N[C@@H](CC(C)C)C(=O)N1CCC[C@H]1C(=O)N[C@@H](Cc1c[nH]cn1)C(=O)N[C@H](C(=O)N[C@@H](CC(N)=O)C(=O)N[C@H](C(=O)NCC(=O)N[C@@H](CO)C(=O)N[C@@H](CC(N)=O)C(=O)N[C@H](C(=O)N[C@@H](Cc1ccc(O)cc1)C(N)=O)[C@@H](C)O)C(C)C)[C@@H](C)O
For B1, the “Amylin receptor human EC50” value [1] was 0.167 nM and the “CTa receptor human EC50” value [2] was 0.191 nM.

B2: N-alpha-[(S)-4-Carboxy-4-(19-carboxynonadecanoylamino)butyryl]-Glu-[His1,Glu14,His17]-pramlintide (peptide)
peptide: {C20 diacid-γGlu}-EHCNTATCATQRLAEFLHHSSNNFGPILPPTNVGSNTY-NH2
modifications: disulfide 3-8
SMILES: CC[C@H](C)[C@H](NC(=O)[C@@H]1CCCN1C(=O)CNC(=O)[C@H](Cc1ccccc1)NC(=O)[C@H](CC(N)=O)NC(=O)[C@H](CC(N)=O)NC(=O)[C@H](CO)NC(=O)[C@H](CO)NC(=O)[C@H](Cc1c[nH]cn1)NC(=O)[C@H](Cc1c[nH]cn1)NC(=O)[C@H](CC(C)C)NC(=O)[C@H](Cc1ccccc1)NC(=O)[C@H](CCC(=O)O)NC(=O)[C@H](C)NC(=O)[C@H](CC(C)C)NC(=O)[C@H](CCCNC(=N)N)NC(=O)[C@H](CCC(N)=O)NC(=O)[C@@H](NC(=O)[C@H](C)NC(=O)[C@@H]1CSSC[C@H](NC(=O)[C@H](Cc2c[nH]cn2)NC(=O)[C@H](CCC(=O)O)NC(=O)CC[C@H](NC(=O)CCCCCCCCCCCCCCCCCCC(=O)O)C(=O)O)C(=O)N[C@@H](CC(N)=O)C(=O)N[C@@H]([C@@H](C)O)C(=O)N[C@@H](C)C(=O)N[C@@H]([C@@H](C)O)C(=O)N1)[C@@H](C)O)C(=O)N[C@@H](CC(C)C)C(=O)N1CCC[C@H]1C(=O)N1CCC[C@H]1C(=O)N[C@H](C(=O)N[C@@H](CC(N)=O)C(=O)N[C@H](C(=O)NCC(=O)N[C@@H](CO)C(=O)N[C@@H](CC(N)=O)C(=O)N[C@H](C(=O)N[C@@H](Cc1ccc(O)cc1)C(N)=O)[C@@H](C)O)C(C)C)[C@@H](C)O
With B2 the “Amylin receptor human EC50” value [1] was 0.248 nM and the “CTa receptor human EC50” value [2] was 0.439 nM.
